Read-outs that look alike come from different tables or passages of the source.
Assays:
[1] = room temperature; for effect of adding DMSO on the activity: EDTA-plasma samples, day 0 and day 3
Description: The effect of adding DMSO was tested on pepsinogen I, pepsinogen II, Helicobacter pylori antibodies and gastrin-17. The results are indicated at day 0 and day 3.

[2] = Stability of the same analytes in serum samples, with and without 5% DMSO (Table 3); type: physicochemical
From the text: Table 3 is a test corresponding to the test of Table 2, but where the ten samples to be tested were serum samples rather than plasma samples.

[3] = Storage stability of analytes in serum sample without stabilizer (background statement); type: physicochemical; conditions: room temperature
From the text: In connection with said determinations and sample handling the poor stability of gastrin-17 has proven to be a problem, due to the fact that it decomposes rapidly in the sample. […] This is in contrast to pepsinogen I and II, which retain their activity at room temperature for many days, and Helicobacter pylori antibodies, which survive for at least three days under refrigerator conditions.

[4] = Stability of U-INTP in samples after three days at room temperature, without and with stabilizer (Table 4); type: physicochemical; parameters: U-INTP test result, Immed.: unit not given beside the values; conditions: for U-INTP test result, 3 days + stabilizer / U-INTP, 3 days + stabilizer, in % of immed.-sample: with stabilizer
From the text: Two parallel tests were done for each sample.

[5] = EDTA-plasma sample PL466s, 0% DMSO, day 0
[6] = EDTA-plasma sample PL466s, 0% DMSO, day 3
[7] = EDTA-plasma sample PL466s, 5% DMSO, day 0
[8] = EDTA-plasma sample PL466s, 5% DMSO, day 3
[9] = EDTA-plasma sample PL467s, 0% DMSO, day 0
[10] = EDTA-plasma sample PL467s, 0% DMSO, day 3
[11] = EDTA-plasma sample PL467s, 5% DMSO, day 0
[12] = EDTA-plasma sample PL467s, 5% DMSO, day 3
[13] = EDTA-plasma sample PL471s, 0% DMSO, day 0
[14] = EDTA-plasma sample PL471s, 0% DMSO, day 3
[15] = EDTA-plasma sample PL471s, 5% DMSO, day 0
[16] = EDTA-plasma sample PL471s, 5% DMSO, day 3
[17] = EDTA-plasma sample PL472s, 0% DMSO, day 0
[18] = EDTA-plasma sample PL472s, 0% DMSO, day 3
[19] = EDTA-plasma sample PL472s, 5% DMSO, day 0
[20] = EDTA-plasma sample PL472s, 5% DMSO, day 3
[21] = EDTA-plasma sample PL473s, 0% DMSO, day 0
[22] = EDTA-plasma sample PL473s, 0% DMSO, day 3
[23] = EDTA-plasma sample PL473s, 5% DMSO, day 0
[24] = EDTA-plasma sample PL473s, 5% DMSO, day 3
[25] = Sample 1, three days at room temperature
[26] = Sample 1 parall., three days at room temperature
[27] = Sample 2, three days at room temperature
[28] = Sample 2 parall., three days at room temperature

For pepsinogen I [PGI], the PGI concentration [1, 5] was 58.8 µg/L, the PGI concentration [1, 6] was 76.9 µg/L and the PGI concentration [1, 7] was 60.5 µg/L. The PGI concentration [1, 8] was 77.4 µg/L, the PGI concentration [1, 9] was 73.3 µg/L and the PGI concentration [1, 10] was 94.9 µg/L. It also gave a PGI concentration [1, 11] of 76.8 µg/L, a PGI concentration [1, 12] of 98.8 µg/L and a PGI concentration [1, 13] of 60.6 µg/L. For the same molecule, the PGI concentration [1, 14] was 85.5 µg/L, the PGI concentration [1, 15] was 67.6 µg/L and the PGI concentration [1, 16] was 84.3 µg/L. It also gave a PGI concentration [1, 17] of 110.3 µg/L, a PGI concentration [1, 18] of 134.8 µg/L and a PGI concentration [1, 19] of 109.4 µg/L. It also gave a PGI concentration [1, 20] of 135.6 µg/L, a PGI concentration [1, 21] of 94.9 µg/L and a PGI concentration [1, 22] of 115.4 µg/L. The PGI concentration [1, 23] was 94.7 µg/L, the PGI concentration [1, 24] was 102.1 µg/L and the “effect of adding DMSO on the activity” value [1] was “essentially no effect”. For the same molecule, the PGI concentration ([2]; serum sample PL411s, 0% DMSO) was 283.6 µg/L, the PGI concentration ([2]; serum sample PL411s, 5% DMSO) was 296.0 µg/L and the PGI concentration ([2]; serum sample PL420b, 0% DMSO) was 75.5 µg/L. The PGI concentration ([2]; serum sample PL420b, 5% DMSO) was 79.3 µg/L, the PGI concentration ([2]; serum sample PL426s, 0% DMSO) was 49.7 µg/L and the PGI concentration ([2]; serum sample PL426s, 5% DMSO) was 50.6 µg/L. It also gave a PGI concentration ([2]; serum sample PL438s, 0% DMSO) of 158.6 µg/L, a PGI concentration ([2]; serum sample PL438s, 5% DMSO) of 156.0 µg/L and a PGI concentration ([2]; serum sample PL439s, 0% DMSO) of 67.6 µg/L. The PGI concentration ([2]; serum sample PL439s, 5% DMSO) was 68.5 µg/L, the PGI concentration ([2]; serum sample PL447b, 0% DMSO) was 6.0 µg/L and the PGI concentration ([2]; serum sample PL447b, 5% DMSO) was 6.0 µg/L. For the same molecule, the PGI concentration ([2]; serum sample PL454s, 0% DMSO) was 100.6 µg/L, the PGI concentration ([2]; serum sample PL454s, 5% DMSO) was 102.3 µg/L and the PGI concentration ([2]; serum sample PL455b, 0% DMSO) was 79.2 µg/L. The PGI concentration ([2]; serum sample PL455b, 5% DMSO) was 81.5 µg/L, the PGI concentration ([2]; serum sample PL457b, 0% DMSO) was 101.1 µg/L and the PGI concentration ([2]; serum sample PL457b, 5% DMSO) was 106.9 µg/L. For the same molecule, the PGI concentration ([2]; serum sample PL458s, 0% DMSO) was 77.1 µg/L, the PGI concentration ([2]; serum sample PL458s, 5% DMSO) was 80.1 µg/L and the “time for which activity is retained” value [3] was “many days”.

In the case of “collagen I aminoterminal telopeptide [U-INTP]”, the “U-INTP test result, Immed.” value ([4]; Sample 1, immediately) is reported as 200, the “U-INTP test result, 3 days no stabilizer” value [4, 25] is reported as 189 and the “U-INTP, 3 days no stabilizer, in % of immed.-sample” value (shortened to “U-INTP, 3 days no stabilizer, in %”) [4, 25] is reported as 94.5%. For the same molecule, the “U-INTP test result, 3 days + stabilizer” value [4, 25] was 202, the “U-INTP, 3 days + stabilizer, in % of immed.-sample” value (“U-INTP, 3 days + stabilizer, in %” below) [4, 25] was 101.0% and the “U-INTP test result, Immed.” value ([4]; Sample 1 parall., immediately) was 199. For the same molecule, the “U-INTP test result, 3 days no stabilizer” value [4, 26] was 187, the “U-INTP, 3 days no stabilizer, in %” value [4, 26] was 94.0% and the “U-INTP test result, 3 days + stabilizer” value [4, 26] was 209. For the same molecule, the “U-INTP, 3 days + stabilizer, in %” value [4, 26] was 105.0%, the “U-INTP test result, Immed.” value ([4]; Sample 2, immediately) was 113 and the “U-INTP test result, 3 days no stabilizer” value [4, 27] was 115. The “U-INTP, 3 days no stabilizer, in %” value [4, 27] was 101.8%, the “U-INTP test result, 3 days + stabilizer” value [4, 27] was 144 and the “U-INTP, 3 days + stabilizer, in %” value [4, 27] was 127.4%. The “U-INTP test result, Immed.” value ([4]; Sample 2 parall., immediately) was 118, the “U-INTP test result, 3 days no stabilizer” value [4, 28] was 114 and the “U-INTP, 3 days no stabilizer, in %” value [4, 28] was 96.6%. The “U-INTP test result, 3 days + stabilizer” value [4, 28] was 136 and the “U-INTP, 3 days + stabilizer, in %” value [4, 28] was 115.3%.

B1: pepsinogen II (protein, UniProt P20142 17-388, looked up)
pro-form: AVVKVPLKKFKSIRETMKEKGLLGEFLRTHKYDPAWKYRFGDLSVTYEPMAYMDAAYFGEISIGTPPQNFLVLFDTGSSNLWVPSVYCQSQACTSHSRFNPSESSTYSTNGQTFSLQYGSGSLTGFFGYDTLTVQSIQVPNQEFGLSENEPGTNFVYAQFDGIMGLAYPALSVDEATTAMQGMVQEGALTSPVFSVYLSNQQGSSGGAVVFGGVDSSLYTGQIYWAPVTQELYWQIGIEEFLIGGQASGWCSEGCQAIVDTGTSLLTVPQQYMSALLQATGAQEDEYGQFLVNCNSIQNLPSLTFIINGVEFPLPPSSYILSNNGYCTVGVEPTYLSSQNGQPLWILGDVFLRSYYSVYDLGNNRVGFATAA
modifications: pro-form
notes: analyte determined from serum or plasma sample
In the case of B1, the PGII concentration [1, 5] is reported as 6.8 µg/L, the PGII concentration [1, 6] is reported as 8.3 µg/L and the PGII concentration [1, 7] is reported as 6.6 µg/L. For the same molecule, the PGII concentration [1, 8] was 7.7 µg/L, the PGII concentration [1, 9] was 5 µg/L and the PGII concentration [1, 10] was 6.4 µg/L. For the same molecule, the PGII concentration [1, 11] was 4.9 µg/L, the PGII concentration [1, 12] was 6.2 µg/L and the PGII concentration [1, 13] was 4.9 µg/L. The PGII concentration [1, 14] was 5.8 µg/L, the PGII concentration [1, 15] was 4.8 µg/L and the PGII concentration [1, 16] was 5.3 µg/L. For the same molecule, the PGII concentration [1, 17] was 5.7 µg/L, the PGII concentration [1, 18] was 7.3 µg/L and the PGII concentration [1, 19] was 5.7 µg/L. For the same molecule, the PGII concentration [1, 20] was 6.9 µg/L, the PGII concentration [1, 21] was 6.4 µg/L and the PGII concentration [1, 22] was 8.5 µg/L. The PGII concentration [1, 23] was 6.4 µg/L, the PGII concentration [1, 24] was 7.9 µg/L and the “effect of adding DMSO on the activity” value [1] was “essentially no effect”. For the same molecule, the PGII concentration ([2]; serum sample PL411s, 0% DMSO) was 32.8 µg/L, the PGII concentration ([2]; serum sample PL411s, 5% DMSO) was 33.6 µg/L and the PGII concentration ([2]; serum sample PL420b, 0% DMSO) was 6.3 µg/L. For the same molecule, the PGII concentration ([2]; serum sample PL420b, 5% DMSO) was 5.7 µg/L, the PGII concentration ([2]; serum sample PL426s, 0% DMSO) was 3.5 µg/L and the PGII concentration ([2]; serum sample PL426s, 5% DMSO) was 3.1 µg/L. For the same molecule, the PGII concentration ([2]; serum sample PL438s, 0% DMSO) was 13.6 µg/L, the PGII concentration ([2]; serum sample PL438s, 5% DMSO) was 12.8 µg/L and the PGII concentration ([2]; serum sample PL439s, 0% DMSO) was 5.7 µg/L. The PGII concentration ([2]; serum sample PL439s, 5% DMSO) was 5.2 µg/L, the PGII concentration ([2]; serum sample PL447b, 0% DMSO) was 4.9 µg/L and the PGII concentration ([2]; serum sample PL447b, 5% DMSO) was 4.6 µg/L. For the same molecule, the PGII concentration ([2]; serum sample PL454s, 0% DMSO) was 7.7 µg/L, the PGII concentration ([2]; serum sample PL454s, 5% DMSO) was 7.3 µg/L and the PGII concentration ([2]; serum sample PL455b, 0% DMSO) was 7.3 µg/L. For the same molecule, the PGII concentration ([2]; serum sample PL455b, 5% DMSO) was 7.1 µg/L, the PGII concentration ([2]; serum sample PL457b, 0% DMSO) was 7.1 µg/L and the PGII concentration ([2]; serum sample PL457b, 5% DMSO) was 6 µg/L. For the same molecule, the PGII concentration ([2]; serum sample PL458s, 0% DMSO) was 6.7 µg/L, the PGII concentration ([2]; serum sample PL458s, 5% DMSO) was 5.8 µg/L and the “time for which activity is retained” value [3] was “many days”.
